Experimental data as given in patent US6747136 (KAROLINA INNOVATIONS, dated 2004).

Assays:
tetanus toxoid [1] = biological target: T1, tetanus toxoid (UniProt P04958 2-1315); assay: ELISA, […] (100 ug/ml) […]
T1 construct: also called TT

tetanus toxoid [2] = biological target: T1, tetanus toxoid; assay: ELISA, coated tetanus toxoid 1 ug/ml

T1 sequence (P04958 2-457 limits assumed, chain 1 of 2): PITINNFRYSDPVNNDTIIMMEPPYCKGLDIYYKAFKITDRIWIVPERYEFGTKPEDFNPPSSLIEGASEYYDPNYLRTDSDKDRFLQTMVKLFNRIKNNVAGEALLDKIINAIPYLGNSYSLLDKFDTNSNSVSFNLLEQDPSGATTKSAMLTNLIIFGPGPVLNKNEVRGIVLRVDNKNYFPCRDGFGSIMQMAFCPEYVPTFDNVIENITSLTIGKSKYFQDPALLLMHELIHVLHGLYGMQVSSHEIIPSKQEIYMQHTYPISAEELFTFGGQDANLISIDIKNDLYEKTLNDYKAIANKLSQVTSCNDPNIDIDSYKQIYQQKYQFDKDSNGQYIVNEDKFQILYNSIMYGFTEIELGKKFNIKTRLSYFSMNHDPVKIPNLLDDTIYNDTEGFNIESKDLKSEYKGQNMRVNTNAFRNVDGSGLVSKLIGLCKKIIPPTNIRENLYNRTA
T1 sequence (P04958 458-1315 limits assumed, chain 2 of 2): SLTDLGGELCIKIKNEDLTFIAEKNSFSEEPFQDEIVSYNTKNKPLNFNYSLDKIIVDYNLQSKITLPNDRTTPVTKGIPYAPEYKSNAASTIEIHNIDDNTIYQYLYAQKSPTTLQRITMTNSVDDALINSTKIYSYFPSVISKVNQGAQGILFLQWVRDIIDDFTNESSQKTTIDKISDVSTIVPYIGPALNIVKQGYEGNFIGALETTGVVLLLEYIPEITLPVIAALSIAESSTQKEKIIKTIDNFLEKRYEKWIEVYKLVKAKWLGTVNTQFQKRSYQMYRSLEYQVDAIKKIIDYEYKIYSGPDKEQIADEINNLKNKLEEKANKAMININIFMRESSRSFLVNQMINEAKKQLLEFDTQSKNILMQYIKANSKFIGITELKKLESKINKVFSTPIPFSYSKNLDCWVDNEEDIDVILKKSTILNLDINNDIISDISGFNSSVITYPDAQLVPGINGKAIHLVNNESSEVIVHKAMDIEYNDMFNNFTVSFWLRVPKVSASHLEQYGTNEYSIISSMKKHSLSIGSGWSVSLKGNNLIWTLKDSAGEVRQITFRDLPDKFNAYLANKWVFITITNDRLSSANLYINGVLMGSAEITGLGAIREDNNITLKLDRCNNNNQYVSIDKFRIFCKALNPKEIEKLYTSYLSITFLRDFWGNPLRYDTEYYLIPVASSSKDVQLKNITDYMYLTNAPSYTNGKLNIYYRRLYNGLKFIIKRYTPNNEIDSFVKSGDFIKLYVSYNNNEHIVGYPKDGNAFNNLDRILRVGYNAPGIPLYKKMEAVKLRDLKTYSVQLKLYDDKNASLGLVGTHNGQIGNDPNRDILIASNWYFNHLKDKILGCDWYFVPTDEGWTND

B1: Fab molecule clone L3 (Fab, V domains shown)
VH: EVQLLESGGGVVQPGRSLRLSCAASGFTFKTYGMHWVRQAPGKGLEWVAGISFDGSNQYYADSVKGRFIVSRDNSRDTVFLQMSSLRLEDTAVYYCATEGSPFGSIKGRYYLENWGQGTLVTVSS
VL: AELTQSPATLSVSPGERASLSCRASQSVGNNLAWYQQKPGQAPRLLIYGGNTRATGTPDRFSGSGSGTEFTLTISSLQSEDFAVYFCQHYSTWPLTFGGGTKVEFK
Tetanus toxoid [1]
  OD405 nm (ELISA reactivity): 0.313 OD405 nm
Tetanus toxoid [2]
  binding result: no binding

B2: Fab molecule clone 1:5 (Fab, V domains shown)
VH: VQLLEQSGAEVRKPGSSVKVSCKASGGTFSGHVITWVRQAPGQGLEWMGESIPIFGSANYAQNYAQKFRDRVSIIADESTSTSFIELSNLRSDDTAVYYCARDPPRYCSAGRCYPGFFQQWGQGTLVTVSS
VL: AELTQSPGTLSLSPGERATLSCRASQSVSSNYLAWYQQRPGQAPRLLIYGASSRATGIPDRFSGSGSGTDFTLTISRLEPEDFAVYYCQLYGNSRWTFGQGTKVEIK
Tetanus toxoid [2]
  binding result: no binding
